Where a chain is given by its changes, count along the chain named.
B1: J1-65D variant 1: humanised/de-immunised J1-65D: J1-65D_VL_1 + J1-65D_VH_1 (antibody, V domains shown)
VH: QVQLVQSGAELKKPGSSVKVSCKASGYTFTDYEMHWVRQAPGQGLEWMGAIQPGGGGTAYNQKFKGRVTLTADKSTSTAYMELSSLRSEDTAVYYCTRRGYDDYPFAYWGQGTLVTVSSASTKGP
VL: DIQMTQSPSSLSASVGDRVTITCRASGNIHNYLAWYQQKPGKAPKLLIYNAKTLADDVPSRFSGSGSGTDYTLTISSLQPEDFATYYCQHFWSAPWTFGGGTKLEIKRT
B2: J1-65D variant 2: humanised/de-immunised J1-65D: J1-65D_VL_1 + J1-65D_VH_2 (antibody, V domains shown)
VH: B1 VH with N61A
VL: B1 VL
B3: J1-65D variant 3: humanised/de-immunised J1-65D: J1-65D_VL_1 + J1-65D_VH_3 (antibody, V domains shown)
VH: B1 VH with L11V, N61A, K65Q
VL: B1 VL
B4: J1-65D variant 6: humanised/de-immunised J1-65D: J1-65D_VL_2 + J1-65D_VH_2 (antibody, V domains shown)
VH: B1 VH with N61A
VL: B1 VL with D57A
B5: J1-65D variant 7: humanised/de-immunised J1-65D: J1-65D_VL_2 + J1-65D_VH_3 (antibody, V domains shown)
VH: B1 VH with L11V, N61A, K65Q
VL: B1 VL with D57A
B6: J1-65D variant 10: humanised/de-immunised J1-65D: J1-65D_VL_3 + J1-65D_VH_2 (antibody, V domains shown)
VH: B1 VH with N61A
VL: B1 VL with D57A, G100Q
B7: J1-65D variant 11: humanised/de-immunised J1-65D: J1-65D_VL_3 + J1-65D_VH_3 (antibody, V domains shown)
VH: B1 VH with L11V, N61A, K65Q
VL: B1 VL with D57A, G100Q
B8: J1-65D variant 13: humanised/de-immunised J1-65D: J1-65D_VL_4 + J1-65D_VH_1 (antibody, V domains shown)
VH: QVQLVQSGAELKKPGSSVKVSCKASGYTFTDYEMHWVRQAPGQGLEWMGAIQPGGGGTAYNQKFKGRVTLTADKSTSTAYMELSSLRSEDTAVYYCTRRGYDDYPFAYWGQGTLVTVSS
VL: DIQMTQSPSSLSASVGDRVTITCRASQGIHNYLAWYQQKPGKAPKLLIYNAKTLADAVPSRFSGSGSGTDYTLTISSLQPEDFATYYCQQFWSAPWTFGQGTKLEIK
B9: J1-65D variant 14: humanised/de-immunised J1-65D: J1-65D_VL_4 + J1-65D_VH_2 (antibody, V domains shown)
VH: B8 VH with N61A
VL: B8 VL
B10: J1-65D variant 15: humanised/de-immunised J1-65D: J1-65D_VL_4 + J1-65D_VH_3 (antibody, V domains shown)
VH: B8 VH with L11V, N61A, K65Q
VL: B8 VL
B11: J1-65D variant 16: humanised/de-immunised J1-65D: J1-65D_VL_4 + J1-65D_VH_4 (antibody, V domains shown)
VH: B8 VH with L11V, N61A, K65Q, L70I
VL: B8 VL
B12: J1-183D chimeric: chimeric antibody with unaltered CDRs: J1-183D_VL + J1-183D_VH (antibody, V domains shown)
VH: QVQLQQPGTELVRPGVSVKISCKVSGYAFTDYAIHWIMQSHAKSLEWIGIINTYYGDSKYNQKFKDKATMTVDKSSNTAYMELARLTSEDSAIYYCARGYDGFAYWGQGTLVTVSS
VL: DIQLTQSPASLSASVGETVTFTCRTSENIYSYLTWYQQKQGKSPQLLVYNAKILAAGVPSRFSGYGSGTQFSLKINSLQPEDFGTYYCQHHYDIPWTFGGGTKLEIK

System: not listed separately
Assay: Soluble aggregates of transiently expressed antibodies
Format: physicochemical
Conditions: Protein A purified antibody
Description: The protein yield of these antibodies, their levels of soluble aggregates and their binding affinity to the immunogen (J1-DE3) are illustrated in (Table 6).

Row | Molecule | % soluble aggregate
1 | B1 | 0%
2 | B2 | 0%
3 | B3 | 1.67%
4 | B4 | 0%
5 | B5 | 0%
6 | B6 | 0.59%
7 | B7 | 1.00%
8 | B8 | 2.82%
9 | B9 | 6.61%
10 | B10 | 5.29%
11 | B11 | 5.60%
12 | B12 | 1.41%

Target: T1, N1 binding to cell surface expressed hJ1 (Homo sapiens, UniProt P78504)
T1 construct: cell expressed full length human J1 (hJ1; HEK293 transfectants); expressed in transfected cells; host or cells: HEK293
Assay: Notch binding blocking assay (FACS): N1 EGF11-13 beads staining human J1-expressing cells
Set-up: key: +: Complete blocking; X: No blocking
Conditions: final antibody concentration 0.2 μg/ml
Experimental: To functionally identify mAbs with the capacity to disrupt the J1-N1 protein:protein interaction, hybridoma culture supernatants were tested in a FACS-based binding assay. Biotinylated soluble human N1 EGF11-13 recombinant protein was bound to avidin-coated beads and used to stain J1-expressing cells in the presence or absence of each mAb that recognised cell surface hJ1 by FACS. […] The four blocking antibodies of the invention were also able to block the binding of recombinant […] to a biotin-tagged J1 DSL-EGF3 recombinant protein in an ELISA assay (FIG. 1B). […] The four blocking mAbs of the invention were purified from serum-free culture supernatants and equal concentrations of purified antibodies were used to compare their activity in subsequent assays (unless hybridoma supernatant was specified). Sequence conservation across the DSL domain raised the possibility that the J1 mAbs may also be able to bind the Jagged 2 (J2) protein. Antibody binding specificity was initially tested by immunocytochemical labelling of cytospin samples of hJ1 and hJ2 transfectants (FIG. 2). All antibodies stained J1 transfectants but none stained the J2 transfected cells, and J2 expression in the same experiment was confirmed using a commercial anti-J2 antibody. The specificity of the purified mAbs was further investigated in mammalian cells transfected with hJ2, human Delta-like ligand 4 (hDLL4), or mJ1 (FIG. 3). Transfectants were FACS stained with 10 μg/ml of each of the four blocking mAbs.
To test the blocking efficiencies of the J1 mAbs, purified mAbs were titrated to determine the concentration required to block recombinant N1 binding to cell surface expressed hJ1. Beads coated with a bacterially-expressed N1 EGF11-13 protein were used to stain the hJ1-expressing cells in the presence of various concentrations of mAbs.
The FACS-based binding assay using biotinylated soluble human N1 EGF11-13 recombinant protein bound to avidin-coated fluorescent beads to stain J1-expressing cells was performed using a dilution series of each variant mAb to test their ability to block J1 binding to N1 by FACS (Table 7). […] Thus 12/16 J1-65D1 variants V1-12 and all J1-183D variants have the desired binding and blocking activity.
Human N1 EGF11-13 (411-526) was expressed in E. coli, refolded in vitro and labelled with purple fluorescent avidin-coated beads (Spherotech) as previously described. HEK293 cells transfected with human J1 or B16F10 cells transfected with mouse J1 were stained with N1 fluorescent beads in the presence of J1 antibody supernatants or purified antibody (murine, chimeric or humanised) diluted in HBBS/10% FCS. Cells were washed and re-suspended in staining buffer before being analysed with a FACSCalibur and data analysis with CellQuest. HEK293 cells transfected with human Jagged 2 and B16F10 cells transfected with human and mouse DLL4 were stained similarly to test blocking specificity.

T1 sequence (P78504 34-1218): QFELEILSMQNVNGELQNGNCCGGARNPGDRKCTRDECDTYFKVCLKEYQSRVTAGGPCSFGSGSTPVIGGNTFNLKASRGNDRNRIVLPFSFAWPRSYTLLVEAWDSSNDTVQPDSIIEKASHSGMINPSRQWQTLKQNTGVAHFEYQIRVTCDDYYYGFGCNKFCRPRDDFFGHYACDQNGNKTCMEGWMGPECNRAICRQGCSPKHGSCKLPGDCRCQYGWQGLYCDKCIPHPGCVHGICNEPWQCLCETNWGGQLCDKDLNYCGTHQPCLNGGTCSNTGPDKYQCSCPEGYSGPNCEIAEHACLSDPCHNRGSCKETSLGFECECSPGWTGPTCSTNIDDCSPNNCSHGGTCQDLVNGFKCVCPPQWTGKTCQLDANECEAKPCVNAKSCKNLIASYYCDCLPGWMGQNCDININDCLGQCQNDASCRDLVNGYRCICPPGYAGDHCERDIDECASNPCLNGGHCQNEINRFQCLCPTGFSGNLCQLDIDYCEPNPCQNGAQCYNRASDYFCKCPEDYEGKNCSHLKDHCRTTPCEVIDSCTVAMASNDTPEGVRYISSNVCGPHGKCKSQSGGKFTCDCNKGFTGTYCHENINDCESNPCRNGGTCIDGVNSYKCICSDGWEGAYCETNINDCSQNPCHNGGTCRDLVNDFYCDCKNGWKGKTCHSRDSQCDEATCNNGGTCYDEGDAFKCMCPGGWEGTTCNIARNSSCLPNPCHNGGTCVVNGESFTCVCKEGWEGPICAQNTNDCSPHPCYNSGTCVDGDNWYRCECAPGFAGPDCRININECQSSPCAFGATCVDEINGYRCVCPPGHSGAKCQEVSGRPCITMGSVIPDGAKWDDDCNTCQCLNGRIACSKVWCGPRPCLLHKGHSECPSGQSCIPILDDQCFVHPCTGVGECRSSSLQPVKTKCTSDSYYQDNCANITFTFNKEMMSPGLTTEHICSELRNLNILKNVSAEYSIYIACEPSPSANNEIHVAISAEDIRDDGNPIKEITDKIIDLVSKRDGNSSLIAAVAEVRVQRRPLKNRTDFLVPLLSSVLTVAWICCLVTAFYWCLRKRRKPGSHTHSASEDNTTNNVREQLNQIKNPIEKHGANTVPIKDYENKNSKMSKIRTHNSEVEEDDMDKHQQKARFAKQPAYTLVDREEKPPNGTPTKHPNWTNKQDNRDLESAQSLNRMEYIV

Row | Molecule | Blocking of Notch1 binding to cell surface Jagged 1
13 | B1 | X
14 | B2 | X
15 | B3 | X
16 | B4 | X
17 | B5 | X
18 | B6 | X
19 | B7 | X
20 | B12 | X

Same assay, conditions: final antibody concentration 0.4 μg/ml

Row | Molecule | Blocking of Notch1 binding to cell surface Jagged 1
21 | B1 | + (Complete blocking)
22 | B2 | + (Complete blocking)
23 | B3 | + (Complete blocking)
24 | B4 | + (Complete blocking)
25 | B5 | + (Complete blocking)
26 | B6 | + (Complete blocking)
27 | B7 | + (Complete blocking)
28 | B12 | + (Complete blocking)

Same assay, conditions: final antibody concentration 0.6 μg/ml

Row | Molecule | Blocking of Notch1 binding to cell surface Jagged 1
29 | B1 | + (Complete blocking)
30 | B2 | + (Complete blocking)
31 | B3 | + (Complete blocking)
32 | B4 | + (Complete blocking)
33 | B5 | + (Complete blocking)
34 | B6 | + (Complete blocking)
35 | B7 | + (Complete blocking)
36 | B12 | + (Complete blocking)

Same assay, conditions: final antibody concentration 1.0 μg/ml

Row | Molecule | Blocking of Notch1 binding to cell surface Jagged 1
37 | B1 | + (Complete blocking)
38 | B2 | + (Complete blocking)
39 | B3 | + (Complete blocking)
40 | B4 | + (Complete blocking)
41 | B5 | + (Complete blocking)
42 | B6 | + (Complete blocking)
43 | B7 | + (Complete blocking)
44 | B9 | X
45 | B10 | X
46 | B11 | X
47 | B12 | + (Complete blocking)

Same assay, conditions: final antibody concentration 2.0 μg/ml

Row | Molecule | Blocking of Notch1 binding to cell surface Jagged 1
48 | B8 | Partial
49 | B9 | Partial
50 | B10 | Partial
51 | B11 | Partial
